The record followed here is PMC4493074.

The target of the data set is CD31 (PECAM-1) (Homo sapiens) (UniProt P16284). Particulars: 5-(N-naphthylcarboxyamide)-2'-deoxyuridine (NapdU) replaces dT; SOMAmer; Flow cytometry: 1x PBS (pH 7.4), 2% FBS, 5 mM MgCl2, 0.2 mM dextran sulfate, room temperature, 15 min; aptamers heated at 95 C 5 min and cooled; Kd assay …. On the technique in general: In flow cytometry, cells or beads pass a laser one at a time.
Sequence of UniProt P16284 (P16284 28-601): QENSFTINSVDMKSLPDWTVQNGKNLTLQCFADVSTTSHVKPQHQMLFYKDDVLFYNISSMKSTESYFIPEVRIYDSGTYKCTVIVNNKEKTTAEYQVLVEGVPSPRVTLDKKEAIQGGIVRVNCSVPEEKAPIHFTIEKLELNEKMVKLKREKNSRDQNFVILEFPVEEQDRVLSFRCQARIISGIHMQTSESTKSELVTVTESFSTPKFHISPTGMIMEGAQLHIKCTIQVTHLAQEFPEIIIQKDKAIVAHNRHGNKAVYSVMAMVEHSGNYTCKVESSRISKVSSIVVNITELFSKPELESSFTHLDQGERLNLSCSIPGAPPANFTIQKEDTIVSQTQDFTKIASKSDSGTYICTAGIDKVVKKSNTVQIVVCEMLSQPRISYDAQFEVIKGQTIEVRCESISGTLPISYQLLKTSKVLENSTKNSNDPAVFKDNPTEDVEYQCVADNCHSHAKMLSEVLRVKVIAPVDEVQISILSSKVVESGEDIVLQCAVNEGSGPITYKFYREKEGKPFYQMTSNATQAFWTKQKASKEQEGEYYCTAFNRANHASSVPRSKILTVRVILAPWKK

On to “TCAGCCGCCAGCCAGTTCGUAGAGGAGGUACGUAAUGUCUGGGUAUACCCCGAUAAUUGACCAGAGCACCACAGAG [AT-1 (CD31 aptamer clone 1)]”, for which the Kd (commonly the concentration at which binding is half-saturated) was determined as 2.28 nM. This counts as single-digit nanomolar.
